Literature values, collected in article PMC8844171 (Clinical Drug Investigation, 2022).
Read-outs that look alike come from different tables or passages of the source.

Tested on: patients with distal MCA or ICA occlusion

B1: alteplase: standard thrombolytic treatment for AIS (protein, UniProt P00750 36-562, looked up)
Tissue-type plasminogen …: SYQVICRDEKTQMIYQQHQSWLRPVLRSNRVEYCWCNSGRAQCHSVPVKSCSEPRCFNGGTCQQALYFSDFVCQCPEGFAGKCCEIDTRATCYEDQGISYRGTWSTAESGAECTNWNSSALAQKPYSGRRPDAIRLGLGNHNYCRNPDRDSKPWCYVFKAGKYSSEFCSTPACSEGNSDCYFGNGSAYRGTHSLTESGASCLPWNSMILIGKVYTAQNPSAQALGLGKHNYCRNPDGDAKPWCHVLKNRRLTWEYCDVPSCSTCGLRQYSQPQFRIKGGLFADIASHPWQAAIFAKHRRSPGERFLCGGILISSCWILSAAHCFQERFPPHHLTVILGRTYRVVPGEEEQKFEVEKYIVHKEFDDDTYDNDIALLQLKSDSSRCAQESSVVRTVCLPPADLQLPDWTECELSGYGKHEALSPFYSERLKEAHVRLYPSSRCTSQHLLNRTVTDNMLCAGDTRSGGPQANLHDACQGDSGGPLVCLNDGRMTLVGIISWGLGCGQKDVPGVYTKVTNYLDWIRDNMRP
Patients with ICA occlusion
  Recanalization rate: < 10%
Patients with distal MCA occlusion
  Recanalization rate: approximately 40%
